Among the data in a protein production outcome set (Wang et al. 2014) are protein production values, retold here.

The series can be described thus: label from the status in PepcDB records.
Consider “MLTSFKLHSLKPYTLKSSMILEIITYILCFFSMIIAFVDNTFSIKIYNITAIVCLLSLILRGRQENYNIKNLILPLSIFLIGLLDLIWYSAFKVDNSPFRATYHSYLNTAKIFIFGSFIVFLTLTSQLKSKKESVLYTLYSLSFLIAGYAMYINSIHENDRISFGVGTATGAAYSTMLIGIVSGVAILYTKKNHPFLFLLNSCAVLYVLALTQTRATLLLFPIICVAALIAYYNKSPKKFTSSIVLLIAILASIVIIFNKPIQNRYNEALNDLNSYTNANSVTSLGARLAMYEIGLNIFIKSPFSFRSAESRAESMNLLVAEHNRLRGALEFSNVHLHNEIIEAGSLKGLMGIFSTLFLYFSLFYIAYKKRALGLLILTLGIVGIGLSDVIIWARSIPIIIISAIVLLLVINNRNNTIN”, for which the protein production entry is “failed”.
Then “MLTTFLATVIGWYLVIVSLFLLFHNEHAKSAMAEIIAHRGSQLIMAIVTLITGLLLVVSHNIWVMGWPVVITLFAWLVLLGGLIRFLCPDTAVRIGQSFVDNPMRLKIAAVIFFIIGLFLLFNVYYVYLK”, with “failed”; and “MLTTLQNIMKLPNEIDEYLASRNFSENTRSNYHYDLVSLQAFFEDKSLTTENLELYKIQISNLSPAAQRRKISSANQYLLFLYQRQKVDQYFKIKQVVQKKSQTAQSYHPMIKEFPEFYGPLTCPGQFLALLILEFGLNFAEIQKLKWENFNWNFKYLTIEKAGIKRVLPIREKFAIRVKAINNADELFAKSRQFLYTELKKFTNYSSKEIREQYILHQVKAGKSIYELATLLGLTTITTLEKYYR”, with “failed”; and “MLTTNASSKIFSKASTAELVGHTRKVHCLSWNPKGGLLGSGGVDCVARIWDVEKLQQKAELEGHTSSIEQLKWDPTANVFFVSASLDHKVLFWDLRARNSEPVASVETQGENINLAWSQDGVYCAVGDKDDNLSFIDVRKFDFFERFQFAEEVNEFKWSPSGPFFFMTLGKEVLVFRWPTMEQQLRLQVHADRCYCLEFDRSGRYFALGGADSIISLWETEYMLCTWTVDRLEYPIRTISFSHDGQFIAAGSEDSVIDISDILNGRQTYALGVKGATNVVAWHPSRHLLAYATEEEYSRDGVAIHLYGTISKDNI”, with “failed”.
Regarding “MLTVTFTVSNTGDRAGAAVPQVYPGFPNTTIDRCVRELKAFRRVELEPGQRQTVTVALTRRDLSYWDILPHPLRSYAVGSILEHHHHHH”, the protein production entry is listed as “failed”.
Turning to “MLVDSQYKECVKEIINWGLFLYSEESRRNLIHDSLVELRCHFTWELVIKDNYMPDLEAKILETEFLDTNYNMGMHNLMAYVRHLKGEQEEALQSLKEAEALIEGEQLGKRSLVTWGNCAWVHYHRGSLAEAQIYLDKVENVCREFASPFRYRMECAEIDCEEGWALLKCGGSNCTRAMACFAKALQEEPENPEYNAGYAITAFRMDFSNEISLEPLRKAVRLNPEDPHLKVLLALKLQDLGKQDEAEKHIEEALPKIPSRNNIFGYVAKFYRRKGCVEEALEFLERALKTKPSSVYLHFQIGLCHKSRVFQIKEATNMHPKGKDRERADQSIRSAIYYFEKTLDLKPTYERAYIDLAEMYAESKQFEEAEEAFQKVLSMLSNLEVHMQQEIHFRYGKFQQFHMKSENIAITHYLKGLKIEVTSIFRDKLLKALQKLAERRMQQNVHVLESLSLLGFVYRLKGDTRKAMSCYEKALRLTEELNPEF”, the protein production entry was “failed”.
For the sequence “MLVFEIIIGLLLAGAALTALSRRIGTPYPALVALAGAALALVPGTPTLVLEPDLALTLFVAPVLLDAAYDASQRDLRASWRTVAGLAVGAVALTVVVVAVVARALVPGMPWAVAVALGAIVAPPDAAAATAVLGQLRPPHRLMVILEGESLFNDASALLVYRLAVGAALAGALSPVEVLPPLLASTAGSVALGYGLSRVIPPLIARIEDVPIAVVVQFCGTFAVWIVAERLHLSGILTVVVFAMASAQRAAGQMAARVRIPSYAVWGFAVFVLNVLAFILVGFQLKAILGRIDAPTLLRYAGVAGAVCLAAVVARIAWVSGTAAVSRLRCRPTEDGSKARPDTIGLSPRGAAVVGWCGMRGIVTLAAALALPTGARGAPPFPHRDLVVFTAFAVVLGTLVLQGMTLRPLMRALRLEGDRSVDREVRLARVETLRAGLSATDGAAGDPLSDVLRRRYELLLRGAEAELRGGAAPQAPPAGGDVDPRAGAAVARRAVEAERGRLLALRSDGTIGDAAFQRVEEELDLEELSLRRLARDGAREAS”, the protein production result is “failed”.
